{"source": "patent US20140256916A1", "about": "(Sanofi, published 2014)", "binders": {"B1": {"name": "Control DS6 monoclonal antibody (antibody, V domains shown)", "VH": "EAQLVQSGAEVVKPGASVKMSCKASGYTFTSYNMHWVKQTPGQGLEWIGYIYPGNGATNYNQKFQGKATLTADPSSSTAYMQISSLTSEDSAVYFCARGDSVPFAYWGQGTLVTVSA", "VL": "EIVLTQSPATMSASPGERVTITCSAHSSVSFMHWFQQKPGTSPKLWIYSTSSLASGVPARFGGSGSGTSYSLTISSMEAEDAATYYCQQRSSFPLTFGAGTKLELK"}, "B2": {"name": "DS6 B-Fab antibody-like binding protein (variant not named) (Fab)", "light": "EIVLTQSPATMSASPGERVTITCSAHSSVSFMHWFQQKPGTSPKLWIYSTSSLASGVPARFGGSGSGTSYSLTISSMEAEDAATYYCQQRSSFPLTFGAGTKLELKGGGGSGGGGSEIVLTQSPATMSASPGERVTITCSAHSSVSFMHWFQQKPGTSPKLWIYSTSSLASGVPARFGGSGSGTSYSLTISSMEAEDAATYYCQQRSSFPLTFGAGTKLELKRTVAAPSVFIFPPSDEQLKSGTASVVCLLNNFYPREAKVQWKVDNALQSGNSQESVTEQDSKDSTYSLSSTLTLSKADYEKHKVYACEVTHQGLSSPVTKSFNRGEC", "heavy": "EAQLVQSGAEVVKPGASVKMSCKASGYTFTSYNMHWVKQTPGQGLEWIGYIYPGNGATNYNQKFQGKATLTADPSSSTAYMQISSLTSEDSAVYFCARGDSVPFAYWGQGTLVTVSAGGGGSGGGGSEAQLVQSGAEVVKPGASVKMSCKASGYTFTSYNMHWVKQTPGQGLEWIGYIYPGNGATNYNQKFQGKATLTADPSSSTAYMQISSLTSEDSAVYFCARGDSVPFAYWGQGTLVTVSAASTKGPSVFPLAPSSKSTSGGTAALGCLVKDYFPEPVTVSWNSGALTSGVHTFPAVLQSSGLYSLSSVVTVPSSSLGTQTYICNVNHKPSNTKVDKKVEPKSCDKTHT", "notes": "also called B-Fab DS6 based engineered antibody"}, "B3": {"name": "DOTA-DS6 conjugated antibody (B-Fab with DOTA, variant not named) (Fab)", "light": "B2 light", "heavy": "B2 heavy", "modifications": "DOTA chelator conjugated, sites not stated"}, "B4": {"name": "B-Fab 1153 (Fab)", "light": "B2 light", "heavy": "B2 heavy", "notes": "also called B-Fab (G4S)2 linker; B-Fab (G4S)2 linker without C-terminal 6xHis tag"}, "B5": {"name": "B-Fab 1151 (Fab)", "light": "B2 light", "heavy": "B2 heavy", "notes": "It also carries a C-terminal 6x-His tag; also called B-Fab (G4S)2 linker and C-terminal 6x-His tag"}, "B6": {"name": "DOTA conjugate of B-Fab 1153 (Fab)", "light": "B2 light", "heavy": "B2 heavy", "modifications": "DOTA chelator conjugated, sites not stated (1.5-2.5 DOTA/fragment)", "notes": "also called B-Fab (DOTA Conjugate)"}, "B7": {"name": "anti-CA6 diabody of SEQ ID NO: 12 fused to a tag of SEQ ID NO: 14 (other)", "chain": "EIVLTQSPATMSASPGERVTITCSAHSSVSFMHWFQQKPGTSPKLWIYSTSSLASGVPARFGGSGSGTSYSLTISSMEAEDAATYYCQQRSSFPLTFGAGTKLELKGGGSGGGGEAQLVQSGAEVVKPGASVKMSCKASGYTFTSYNMHWVKQTPGQGLEWIGYIYPGNGATNYNQKFQGKATLTADPSSSTAYMQISSLTSEDSAVYFCARGDSVPFAYWGQGTLVTVSAGGCGGHHHHHH"}, "B8": {"name": "DOTA conjugate of the anti-CA6 diabody (SEQ ID NO: 12 fused to SEQ ID NO: 14) (other)", "chain": "B7 chain", "modifications": "DOTA chelator conjugated, sites not stated", "notes": "Homodimeric diabody conjugated to DOTA; also called Diabody (DOTA Conjugate)"}, "B9": {"name": "B-Fab 1152 (Fab)", "light": "EIVLTQSPATMSASPGERVTITCSAHSSVSFMHWFQQKPGTSPKLWIYSTSSLASGVPARFGGSGSGTSYSLTISSMEAEDAATYYCQQRSSFPLTFGAGTKLELKGGGGSEIVLTQSPATMSASPGERVTITCSAHSSVSFMHWFQQKPGTSPKLWIYSTSSLASGVPARFGGSGSGTSYSLTISSMEAEDAATYYCQQRSSFPLTFGAGTKLELKRTVAAPSVFIFPPSDEQLKSGTASVVCLLNNFYPREAKVQWKVDNALQSGNSQESVTEQDSKDSTYSLSSTLTLSKADYEKHKVYACEVTHQGLSSPVTKSFNRGEC", "heavy": "EAQLVQSGAEVVKPGASVKMSCKASGYTFTSYNMHWVKQTPGQGLEWIGYIYPGNGATNYNQKFQGKATLTADPSSSTAYMQISSLTSEDSAVYFCARGDSVPFAYWGQGTLVTVSAGGGGSEAQLVQSGAEVVKPGASVKMSCKASGYTFTSYNMHWVKQTPGQGLEWIGYIYPGNGATNYNQKFQGKATLTADPSSSTAYMQISSLTSEDSAVYFCARGDSVPFAYWGQGTLVTVSAASTKGPSVFPLAPSSKSTSGGTAALGCLVKDYFPEPVTVSWNSGALTSGVHTFPAVLQSSGLYSLSSVVTVPSSSLGTQTYICNVNHKPSNTKVDKKVEPKSCDKTHT", "notes": "also called B-Fab G4S linker and C-terminal 6x-His tag; B-Fab DS6 based engineered antibody with GGGGS (G4S) linker and C-terminal 6x-His tag"}}, "key": {"[1]": {"biological_target": "T1, CA6, tumor-associated MUC1-sialoglycotope (human, UniProt P15941 24-1255, carries the CA6 sialoglycotope (sialylated glycan epitope); sites not stated)", "assay": "flow cytometry (FACS) on WISH cells (CA6+)"}, "[2]": {"biological_target": "T1, CA6, tumor-associated …", "assay": "flow cytometry (FACS) on WISH cells (CA6+)", "remark": "listed apart in the source", "T1 sequence (P15941 24-1097, chain 1 of 2)": "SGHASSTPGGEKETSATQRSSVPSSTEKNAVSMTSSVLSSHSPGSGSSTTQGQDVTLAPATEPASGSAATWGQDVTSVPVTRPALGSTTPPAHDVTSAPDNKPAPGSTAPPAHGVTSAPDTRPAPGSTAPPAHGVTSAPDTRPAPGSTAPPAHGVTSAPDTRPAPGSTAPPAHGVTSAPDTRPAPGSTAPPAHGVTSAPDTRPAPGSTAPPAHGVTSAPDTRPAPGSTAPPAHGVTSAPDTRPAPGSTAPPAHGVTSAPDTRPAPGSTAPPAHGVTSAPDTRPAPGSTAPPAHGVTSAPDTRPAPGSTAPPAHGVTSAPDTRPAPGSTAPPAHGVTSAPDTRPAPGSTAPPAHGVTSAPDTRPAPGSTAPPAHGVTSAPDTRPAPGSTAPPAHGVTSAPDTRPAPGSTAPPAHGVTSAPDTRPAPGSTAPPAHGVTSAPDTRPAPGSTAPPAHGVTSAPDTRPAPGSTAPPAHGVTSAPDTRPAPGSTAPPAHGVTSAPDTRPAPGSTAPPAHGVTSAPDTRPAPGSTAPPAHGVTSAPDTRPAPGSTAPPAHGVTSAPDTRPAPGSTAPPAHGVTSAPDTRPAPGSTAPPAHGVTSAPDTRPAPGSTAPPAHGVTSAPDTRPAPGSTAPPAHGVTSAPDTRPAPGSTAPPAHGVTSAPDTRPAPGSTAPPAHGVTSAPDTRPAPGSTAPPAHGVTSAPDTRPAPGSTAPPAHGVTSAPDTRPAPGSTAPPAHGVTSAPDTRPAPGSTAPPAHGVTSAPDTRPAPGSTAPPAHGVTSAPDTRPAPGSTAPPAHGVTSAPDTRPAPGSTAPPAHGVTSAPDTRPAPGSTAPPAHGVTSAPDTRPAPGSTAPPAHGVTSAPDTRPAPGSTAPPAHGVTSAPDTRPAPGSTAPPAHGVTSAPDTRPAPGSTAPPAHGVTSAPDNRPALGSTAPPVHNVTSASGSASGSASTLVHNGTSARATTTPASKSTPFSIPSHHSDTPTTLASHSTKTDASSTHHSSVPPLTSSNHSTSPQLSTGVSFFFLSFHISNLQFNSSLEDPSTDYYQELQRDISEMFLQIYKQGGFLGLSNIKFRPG", "T1 sequence (P15941 1098-1255, chain 2 of 2)": "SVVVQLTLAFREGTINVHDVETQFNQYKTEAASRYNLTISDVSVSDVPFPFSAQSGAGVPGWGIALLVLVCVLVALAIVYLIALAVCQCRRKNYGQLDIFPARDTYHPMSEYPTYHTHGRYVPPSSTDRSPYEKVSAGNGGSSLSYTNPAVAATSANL"}, "[3]": {"biological_target": "T1, CA6, tumor-associated …", "assay": "flow cytometry (FACS) on WISH cells (CA6+)", "remark": "listed apart in the source"}, "[4]": {"biological_target": "T1, CA6, tumor-associated …", "assay": "method not given; presumably flow cytometry on WISH (CA6+) cells as for the B-Fabs"}, "[5]": {"biological_target": "T2, CA6, tumor-associated MUC1-sialoglycotope (human, UniProt P15941 24-1255, carries the CA6 sialoglycotope (sialylated glycan epitope); sites not stated)", "T2 construct": "whole, on cells; In the assays it is presented on WISH cells (CA6+); A2780 cells are CA6 negative; also called CA6 antigen; human CA6 tumor antigen", "assay": "flow cytometry (FACS) on WISH cells (CA6+), normalized fluorescence, without DOTA"}, "[6]": {"biological_target": "T2, CA6, tumor-associated …", "assay": "flow cytometry (FACS) on WISH cells (CA6+), normalized fluorescence, with DOTA", "T2 sequence (P15941 24-1255)": "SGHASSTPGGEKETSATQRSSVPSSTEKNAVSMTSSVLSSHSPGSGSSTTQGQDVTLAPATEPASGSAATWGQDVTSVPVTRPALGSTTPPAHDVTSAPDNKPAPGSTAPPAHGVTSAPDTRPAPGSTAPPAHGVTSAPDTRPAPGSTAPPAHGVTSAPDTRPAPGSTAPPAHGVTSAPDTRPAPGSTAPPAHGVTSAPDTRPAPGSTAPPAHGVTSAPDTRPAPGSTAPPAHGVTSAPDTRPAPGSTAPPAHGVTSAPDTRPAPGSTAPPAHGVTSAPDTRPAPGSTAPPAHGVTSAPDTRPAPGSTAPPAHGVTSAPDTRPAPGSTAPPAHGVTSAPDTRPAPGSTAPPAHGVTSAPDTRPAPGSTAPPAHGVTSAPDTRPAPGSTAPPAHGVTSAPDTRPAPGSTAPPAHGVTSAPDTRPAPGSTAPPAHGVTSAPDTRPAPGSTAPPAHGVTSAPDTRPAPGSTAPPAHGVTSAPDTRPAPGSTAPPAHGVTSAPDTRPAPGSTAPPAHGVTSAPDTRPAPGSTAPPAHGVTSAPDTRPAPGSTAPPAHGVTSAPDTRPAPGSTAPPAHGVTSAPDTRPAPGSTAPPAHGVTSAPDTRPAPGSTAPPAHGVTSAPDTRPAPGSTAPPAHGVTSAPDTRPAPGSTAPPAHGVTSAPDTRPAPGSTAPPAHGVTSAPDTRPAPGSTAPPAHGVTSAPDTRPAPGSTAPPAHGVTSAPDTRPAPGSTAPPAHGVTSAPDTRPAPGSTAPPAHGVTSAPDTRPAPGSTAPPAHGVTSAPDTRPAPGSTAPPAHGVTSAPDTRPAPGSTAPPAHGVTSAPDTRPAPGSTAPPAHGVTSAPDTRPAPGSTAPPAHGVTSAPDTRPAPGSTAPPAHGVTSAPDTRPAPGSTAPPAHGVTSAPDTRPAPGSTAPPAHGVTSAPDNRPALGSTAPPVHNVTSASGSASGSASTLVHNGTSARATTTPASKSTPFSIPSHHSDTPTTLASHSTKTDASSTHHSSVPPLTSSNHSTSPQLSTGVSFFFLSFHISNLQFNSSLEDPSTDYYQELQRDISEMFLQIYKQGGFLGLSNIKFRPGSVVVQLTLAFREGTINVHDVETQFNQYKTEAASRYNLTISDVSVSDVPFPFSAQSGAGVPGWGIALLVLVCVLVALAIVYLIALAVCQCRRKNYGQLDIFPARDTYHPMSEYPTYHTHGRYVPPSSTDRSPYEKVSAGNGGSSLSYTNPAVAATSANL"}, "[7]": {"biological_target": "T2, CA6, tumor-associated …", "assay": "flow cytometry (FACS) on WISH cells (CA6+)", "procedure": "The B-Fab 1153 is a DS6-based engineered antibody-like binding protein containing a both L1 and L2 linkers as (G45)₂ and not containing a C-terminal 6x-His tag. Since this protein was lacking a His tag the protein was purified by […], Kappa-select and SEC. The in vitro binding solution was prepared at 1.6 mg/ml in PBS and binding affinity was characterized using flow cytometry in the WISH CA6+ cell line (FIG. 3C and FIG. 3D)."}, "[8]": {"biological_target": "T2, CA6, tumor-associated …", "assay": "flow cytometry on WISH (CA6+) cells (method from Example 4)"}, "[9]": {"biological_target": "T2, CA6, tumor-associated …", "assay": "FACS binding assay (Free), Kd app; unconjugated (Free) B-Fab, not DOTA conjugate"}, "[10]": {"biological_target": "T2, CA6, tumor-associated …", "assay": "FACS binding assay (DOTA Conjugate), Kd app"}, "[11]": {"biological_target": "T2, CA6, tumor-associated …", "assay": "FACS binding assay (Free), Kd app"}}, "data": [{"binder": "B1", "values": [{"measurement": "EC50 (read off the curve)", "setting": "[1]", "result": "~2", "unit": "nM"}, {"measurement": "EC50 (read off the curve)", "setting": "[2]", "result": "~2", "unit": "nM"}, {"measurement": "EC50 (read off the curve)", "setting": "[3]", "result": "~2", "unit": "nM"}, {"measurement": "Kd", "setting": "[4]", "result": 2, "unit": "nM"}]}, {"binder": "B2", "values": [{"measurement": "EC50 (read off the curve)", "setting": "[5]", "result": "~2", "unit": "nM"}, {"measurement": "Kd", "setting": "[5]", "result": 2.2, "unit": "nM"}]}, {"binder": "B3", "values": [{"measurement": "EC50 (read off the curve)", "setting": "[6]", "result": "~6", "unit": "nM"}, {"measurement": "Kd", "setting": "[6]", "result": 6.6, "unit": "nM"}]}, {"binder": "B4", "values": [{"measurement": "EC50 (read off the curve)", "setting": "[7]", "result": "~2", "unit": "nM"}, {"measurement": "Kd", "setting": "[8]", "result": 2.3, "unit": "nM"}, {"measurement": "Kd", "setting": "[9]", "result": 4, "unit": "nM"}]}, {"binder": "B5", "values": [{"measurement": "Kd", "setting": "[8]", "result": 3.4, "unit": "nM"}]}, {"binder": "B6", "values": [{"measurement": "Kd", "setting": "[10]", "result": 7.4, "unit": "nM"}]}, {"binder": "B7", "values": [{"measurement": "Kd", "setting": "[11]", "result": 10, "unit": "nM"}]}, {"binder": "B8", "values": [{"measurement": "Kd", "setting": "[10]", "result": 7.5, "unit": "nM"}]}, {"binder": "B9", "values": [{"measurement": "Kd", "setting": "[8]", "result": 88, "unit": "nM"}]}]}
